According to patent US11944665B2, “Methods and compositions for modulating lymphatic vessels in the central nervous system” (University of Virginia Patent Foundation, priority 2016, dated 2024):
Entries after “also recorded” stand apart in the source; their conditions may differ.

How the values were obtained:
[1] = tested on: meningeal lymphatic; experiment: Lymphatic drainage of fluorescent microbeads into deep cervical lymph nodes (FIG. 15); assay type: in vivo, mice; settings: VEGF-c injected into CSF, 5 days after injection, vs PBS
Procedure: FIGS. 15A-E are a series of diagrams, microscope images, and graphs showing modulation of the meningeal lymphatic affects drainage into the cervical lymph nodes. […] Fluorescent microbeads (0.5 μm in diameter-5 μl) were injected in the lateral ventricle of mice at a rate of 0.5 μl/min. 30 min later, the deep cervical lymph nodes were harvested, sliced and immunostained for the presence of fluorescent beads. FIG. 15B is a pair of representative sections of deep cervical lymph nodes from sham operated (left) and ligated (right) mice immunostained for lymphatic vasculature (Lyve-1), fluorescent microbeads and Lyve-1. Note the accumulation of microbeads in the subcapsular space of the lymph nodes in the sham operated mice (left). […] N=3-4 mice per group, Student-t-test. d. Quantification of the coverage of dCLN section by fluorescent beads in PBS and Visudyne injected mice (24 h after ablation). N=3-5 mice per group, *p<0.05, Student-t-test. e. Quantification of the coverage of dCLN section by fluorescent beads in PBS and VEGF-c injected mice (5 days after VEGF-c injection). N=4 mice per group.

[2] = tested on: meningeal lymphatic vessels; experiment: Transcranial gel+VEGF-C156S in old mice (Example 4); assay type: in vivo, C57BL/6 mice; settings: one month transcranial treatment, 2 h after OVA-A647 ICM
Procedure: […] of a gel matrix alone (vehicle) or containing 200 ng of recombinant human VEGF-C156S was applied every two weeks on top of a thinned skull of old C57BL/6 mice. One month after the initial treatment, OVA-A647 was injected ICM and mice were transcardially perfused with saline 2 h post injection. […] OVA-A647 alone is shown in the inset in the upper right corner of each of FIGS. 27A and 27B, and LYVE-1 alone is shown in the inset in the lower right corner of each of FIGS. 27A and 27B.

[3] = tested on: meningeal lymphatic vessels; experiment: i.c.v. (cisterna magna) injection of rhVEGF-c, meningeal lymphatic vessel diameter (FIG. 2D-E); assay type: in vivo, mice; settings: single injection of recombinant protein into the CSF (i.c.v.)
Source text: FIGS. 2A-H are a series of microscope images and graphs showing Molecular and structural characterization of meningeal lymphatic vessels. FIG. 2A is a series of representative images of Prox1 expression in the nuclei of Lyve-1^+ vessels in the dural sinuses of Prox1^tdT mice (scale bars, 10p m)(in order of left-to-right, the four panels show Lyve-1, Prox1-tdTOMATO, DAPI, and overlay). FIG. 2B is a series of representative images of podoplanin and Lyve-1 labelling on dural sinuses (scale bar, 40 μm) (in order of left-to-right, the three panels show Lyve-1. Podoplanin, and overlay). FIG. 2C is a series of representative images of VEGFR3 and Lyve-1 staining on dural sinuses (scale bar, 20 μm)(in order of left-to-right, the three panels show VEGFR3. Lyve-1, and overlay). For FIGS. 2D and 2E Adult mice were injected i.c.v. (cisterna magna) with 4 μg of rhVEGF-c (Cys156Ser) or with PBS. Meninges were harvested 7 and 14 days after the injection. […] FIG. 2E is a graph showing quantification of the meningeal lymphatic vessel diameter (mean±s.e.m.; n=4 mice each group, *P<0.05, two-way ANOVA with Bonferroni post hoc test). FIGS. 2F and 2G are a series of representative images of smooth muscle cells (alpha-smooth muscle actin, α-SMA) and Lyve-1 labelling on dural sinuses (scale bars, 50 μm (g) or 20 μm(g)). […]

B1: VEGF-c: VEGFR3 agonist polypeptide, lymphangiogenic growth factor, SEQ ID NO: 1; recombinant protein injected into CSF (FIG. 2e used rhVEGF-c Cys156Ser) (protein, listed as Homo sapiens)
chain: MHLLGFFSVACSLLAAALLPGPREAPAAAAAFESGLDLSDAEPDAGEATAYASKDLEEQLRSVSSVDELMTVLYPEYWKMYKCQLRKGGWQHNREQANLNSRTEETIKFAAAHYNTEILKSIDNEWRKTQCMPREVCIDVGKEFGVATNTFFKPPCVSVYRCGGCCNSEGLQCMNTSTSYLSKTLFEITVPLSQGPKPVTISFANHTSCRCMSKLDVYRQVHSIIRRSLPATLPQCQAANKTCPTNYMWNNHICRCLAQEDFMFSSDAGDDSTDGFHDICGPNKELDEETCQCVCRAGLRPASCGPHKELDRNSCQCVCKNKLFPSQCGANREFDENTCQCVCKRTCPRNQPLNPGKCACECTESPQKCLLKGKKFHHQTCSCYRRPCTNRQKACEPGFSYSEEVCRCVPSYWKRPQMS
[1]
  lymphatic drainage (efficacy) after VEGF-c: improves the drainage
[1]; listed as recombinant VEGF-c
  lymphatic drainage (efficacy) after VEGF-c: increase drainage efficacy
[2]
  OVA-A647 influx from the CSF into the parenchyma: improved CSF influx into brain
[3]
  diameter of meningeal lymphatic vessels: increase in diameter; also recorded: increase the diameters of meningeal lymphatic vessels
[3]; listed as recombinant VEGF-c
  diameter of meningeal lymphatic vessels: sufficient to increase diameter

B2: VEGF-C156S: recombinant human VEGF-C156S, applied in a gel matrix on a thinned skull (protein, UniProt P49767 112-227, looked up, variant C156S)
Vascular endothelial growth …: AHYNTEILKSIDNEWRKTQCMPREVCIDVGKEFGVATNTFFKPPSVSVYRCGGCCNSEGLQCMNTSTSYLSKTLFEITVPLSQGPKPVTISFANHTSCRCMSKLDVYRQVHSIIRR
[2]
  drainage of OVA-A647 into the dcLNs: increased
